The values below come from PMC4942676.

The target of test [1] is FLAG-tagged construct containing the Omp25 TMD, translated in the PURE system. Nature of the test: co-sedimentation; Omp25 TMD construct translated in the PURE system with 35S-methionine and 15 uM recombinant chaperone; sucrose gradient, autoradiography.
Test [2] addresses UBQLN UBL domain UBL (Homo sapiens) (UniProt Q9UMX0). The note with it: cited from earlier work.
In test [3] the target is UBQLN1 loaded with Ub-Omp25 (UniProt Q9UMX0). Description: pull-down; client (Omp25 or Ub-Omp25) translated in lysate lacking ubiquitin, UbcH5 and the major TMD-binding factors, supplemented with 40 nM recombinant FLAG-tagged UBQLN1 variant; affinity purified via the FLAG tag; autoradiography for the client, immunoblot for proteasome subunit α7.

What is called stoichiometry N is a count of units in the complex or per binding partner. With “recombinant UBQLN1 (FLAG-tagged) (from UniProt Q9UMX0 1-589) (natural protein)”, the stoichiometry N in test [1] came to 1.
As a reminder, the Kd is a measure of binding affinity in units of concentration. Turning to “UBQLN UBA domain UBA (from UniProt Q9UMX0)”, the Kd in test [2] was 80 µM.
Turning to “proteasome, endogenous in rabbit reticulocyte lysate (from UniProt G1SZ14 1-326) (complex)”, in test [3], the fold proteasome association relative to UBQLN1 loaded with Omp25 is 2 to 3 fold.
